# Data as given in article PMC11964265, “Eating the brain - A multidisciplinary study provides new insights into the mechanisms underlying the cytopathogenicity of Naegleria fowleri” (PLOS Pathogens, 2025).
# B1: Naegleria fowleri lysozyme (recombinant) (natural protein)
# chain: MSSYYTKEQFFRALHQVESKGQLNPPDGDKGRAIGPLQIWEVYWKDSGIQESYQSVRKFEIAKKCVNRFMKRYAENEWGPTMTIDQVEKCARIHNGGPRGHLKPETDDYWERFKEALENLDDEEVVVVEENDNNDDDQDDNEEESKDHRELLKIGMSGADVEEIQQQLADLGYDLGSYGADGKFGKATQQAVMKFQQDHDLAVDGIVGKETRKALNLEKGEDDQEQQEVADDQQEDDDEQQQQQNKDQPQEQDEEETTNEVKEEEQNDDEHEDPQEEEEQQQEDEQEDPQEEQQEDEDQQEDNDEENDQQQEDDDDQEQQQEEEEQEDPQEEEEQQNDDDDQQDDMEEQQDGDDDNDDDDA
# notes: Cloned into pET42b with NdeI/XhoI sites in the primers; Pentamer by analytical SEC only; also called Nf lysozyme; source: E. coli BL21(DE3), purified (Ni-NTA agarose, native conditions)
# Target: the molecule itself
# Experiment: SEC; analytical size-exclusion chromatography, Superdex 200 Increase 10/300 GL, 20 mM Tris-HCl, 150 mM NaCl, pH 7.5; mass from calibration with Gel Filtration Standard (Bio-Rad)
protein,measurement,value
B1,stoichiometry N,5
